Ends that are not written are not given here.
Columns and labels:
intestinal mucosa = test: Example 2: intestinal mucosal weight in rats after subcutaneous glicentin or control peptides; type: in vivo; details: 1 nmol per rat s.c.; for Intestinal mucosal weight: third of four equal parts of small intestine from the duodenum
Description: A solution of glicentin dissolved in a small amount of distilled water for injection was diluted with a 2% solution of bovine albumin prepared with a physiological saline solution for injection to a concentration of 400 μg/ml (50 nmol/ml). The solution was frozen and stored until used. On use it was 1:10 diluted with the physiological saline solution and subcutaneously given to rats at a dose of 0.2 ml, i.e., 1 nmol of glicentin per rat.
They were prepared and administered in the same way as glicentin at a dose of 1 nmol.
The small intestine was divided equally into four parts and the third part from the duodenum was measured for the weight of the mucosa.

male BALB/c mice = test: Intraperitoneal administration of human glicentin to mice, appearance observed; type: in vivo, mouse; details: 10 mg/kg intraperitoneally, male BALB/c mice (6 weeks age)
[1] = tested on: digestive tracts (gastric antrum, duodenum, jejunum); test: Example 3: motility of the digestive tracts after meal in dogs (strain gauge transducers); type: in vivo, dog; details: 400 pmol/kg i.v. over 1 hour
Description: An experiment was performed as described below in order to examine the action of glicentin on a motility of the digestive tracts after meal.
Six hybrid dogs weighing 16-18 kg were sutured with strain gauge transducers (manufactured by Star Medical, F121S) at a site of the gastric antrum 4 cm from the pyloric ring, a site of the duodenum for the main incurrent pancreatic duct and a site of the jejunum 10 cm from the Treitz's ligamentum, respectively, to measure the contractile force intensity of the circular muscle. Recovery period for the suture was 2 weeks.
Three of the 6 dogs were intravenously given over 1 hour 15 ml of a physiological saline solution in which 400 pmol of glicentin had been dissolved per kg of bodyweight. The remaining three received an aqueous physiological solution containing no glicentin in the same way as above as a control for comparison. The dogs were fed on 15 g of a solid diet (SD®, manufactured by Oriental Yeast K. K.) and 15 g of Vitaone® (manufactured by Nihon Pet Food K. K. and Kyodo Shiryo K. K. ) per kg of bodyweight simultaneously with the intravenous administration.
Then, the motor activity of the digestive tracts and length of the post-feed period were measured. Intensity of the contraction in the post-feed period was integrated for the two-hour measurements and evaluated in comparison with the mean level of the signal peak in phase 3 motor activity of the intestinal tracts in hunger and taken as a motor index.

intestinal mucosae = test: Example 1: nutritional (trophic) effect of glicentin on the intestinal mucosae of rats fed an elemental nutrition; type: in vivo, rat; details: 10 μg s.c. every 12 hours for 7 days
Description: An experiment was performed in male SD rats weighing 140-160 g which had been fed on standard food under light-dark condition of a cycle of 12 hours. The food which was replaced by an elemental nutrition (Elental®, Morishita-Roussel Japan) was taken ad lib., and remained unchanged until the experiment was finished. After feeding on the component nutrition for 3 days, administration of glicentin prepared as described below was started.
Gelatin was dissolved in warm water to a weight ratio of 16%, and the solution autoclaved and cooled to room temperature. To 40 ml of the gelatin solution was added a solution of 1 mg of glicentin in 10 ml of distilled water with stirring at room temperature. The mixture was divided into test tubes, freeze dried and stored for use.
The gelatin solution was subcutaneously given at a dose of 10 μg per glicentin every 12 hours for 7 days to examine a nutritional effect of glicentin on the intestinal mucosae. A similar gelatin solution containing no glicentin was given for the same period of time as a control for comparison. Twelve hours after completion of the final administration, the rats were sacrificed and subjected to removal of the small intestine in the region from the Treitz's ligamentum to the cecum. The removed small intestine was cut at the central site to separate it into the jejunum and the ileum. The lumen of each of the intestinal tracts was gently washed with an aqueous physiological saline solution. The intestinal tracts were longitudinally incised, respectively, and tissues were removed of a portion of the jejunum in proximity to the duodenum, a portion of the ileum in proximity to the cecum and a portion around the boundary between the jejunum and the ileum and fixed in a 3.7% formalin solution as the proximal, distal and middle sites of the small intestine, respectively. Mucosae were collected by ablation with a spatula from the remainder of the intestinal tracts and weighed, respectively.
The tissues fixed in the formalin solution were embedded in paraffin to form a preparation which was stained with hematoxylin-eosin and measured for height of the villi using an optical microscope.

[2] = post-feed contraction integrated over two hours relative to phase 3 peak

## Glucagon-like peptide-1: peptide hormone which occurs in a region of preproglucagon containing no glicentin (HAEGTFTSDVSSYLEGQAAKEFIAWLVKGR; ends and bridges not checked; UniProt P01275 98-127, looked up) [reference compound]
Intestinal mucosa
  Intestinal mucosal weight: 0.498 ± 0.042 g

B1: Glicentin: Enteroglucagon peptide comprising 69 amino acid residues (SEQ ID NO:1), prepared by genetic engineering procedure (protein)
chain: RSLQDTEEKSRSFSASQADPLSDPDQMNEDKRHSQGTFTSDYSKYLDSRRAQDFVQWLMNTKRNRNNIA
Intestinal mucosa; versus control
  effect on weight of intestinal mucosa (in words): significantly increases
Intestinal mucosa
  Intestinal mucosal weight: 0.614 ± 0.025 g
Male BALB/c mice
  change in appearance: no change in appearance
[1]; simultaneously with feeding
  Length of post-feed period: 13.6 ± 1.0 h
[1]; [2]
  Motor index, duodenum: 0.675 ± 0.4
  Motor index, jejunum: 1.087 ± 0.2
  Motor index, stomach vestibulum: 0.878 ± 0.1
Intestinal mucosae
  Ileal mucosal weight per 100 g bodyweight: 0.57 ± 0.04 g/100 g bodyweight
  Jejunal mucosal weight per 100 g bodyweight: 0.75 ± 0.08 g/100 g bodyweight
  Length of small intestine per 100 g bodyweight: 66.4 ± 1.7 cm/100 g bodyweight
  Whole small intestinal mucosal weight per 100 g bodyweight: 1.32 ± 0.03 g/100 g bodyweight

From patent publication US5547938A, “Therapeutic agent for digestive tract diseases using glicentin” (Nisshin Flour Milling Co., Ltd., priority 1993, dated 1996)
